Earlier results in paper PMC3460238.
Where two headings read alike, the source gives them in different places.

Key:
[1] = biological target: C3b (Homo sapiens) (UniProt P01024)
[2] = biological target: C3b (Homo sapiens) (UniProt P01024); remark: listed apart in the source

Chain of C3b (Homo sapiens) (P01024 23-667, chain 1 of 2): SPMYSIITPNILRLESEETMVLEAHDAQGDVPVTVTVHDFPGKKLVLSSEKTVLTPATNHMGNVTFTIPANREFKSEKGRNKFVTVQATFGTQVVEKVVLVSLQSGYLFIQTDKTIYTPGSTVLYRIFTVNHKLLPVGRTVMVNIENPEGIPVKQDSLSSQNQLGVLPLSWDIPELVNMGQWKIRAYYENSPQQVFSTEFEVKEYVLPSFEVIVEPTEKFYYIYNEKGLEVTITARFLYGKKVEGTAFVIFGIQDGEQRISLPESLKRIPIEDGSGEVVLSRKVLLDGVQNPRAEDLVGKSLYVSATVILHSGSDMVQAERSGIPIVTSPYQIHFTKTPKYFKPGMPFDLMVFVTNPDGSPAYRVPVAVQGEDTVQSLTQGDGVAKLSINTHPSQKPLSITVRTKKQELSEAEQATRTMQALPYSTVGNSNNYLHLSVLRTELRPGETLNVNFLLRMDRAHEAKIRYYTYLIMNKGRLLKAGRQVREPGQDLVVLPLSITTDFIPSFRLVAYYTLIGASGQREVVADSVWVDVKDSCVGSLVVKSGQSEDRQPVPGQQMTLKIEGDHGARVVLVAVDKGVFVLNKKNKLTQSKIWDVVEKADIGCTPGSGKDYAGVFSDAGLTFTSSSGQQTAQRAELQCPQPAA
Chain of C3b (Homo sapiens) (P01024 749-1663, chain 2 of 2): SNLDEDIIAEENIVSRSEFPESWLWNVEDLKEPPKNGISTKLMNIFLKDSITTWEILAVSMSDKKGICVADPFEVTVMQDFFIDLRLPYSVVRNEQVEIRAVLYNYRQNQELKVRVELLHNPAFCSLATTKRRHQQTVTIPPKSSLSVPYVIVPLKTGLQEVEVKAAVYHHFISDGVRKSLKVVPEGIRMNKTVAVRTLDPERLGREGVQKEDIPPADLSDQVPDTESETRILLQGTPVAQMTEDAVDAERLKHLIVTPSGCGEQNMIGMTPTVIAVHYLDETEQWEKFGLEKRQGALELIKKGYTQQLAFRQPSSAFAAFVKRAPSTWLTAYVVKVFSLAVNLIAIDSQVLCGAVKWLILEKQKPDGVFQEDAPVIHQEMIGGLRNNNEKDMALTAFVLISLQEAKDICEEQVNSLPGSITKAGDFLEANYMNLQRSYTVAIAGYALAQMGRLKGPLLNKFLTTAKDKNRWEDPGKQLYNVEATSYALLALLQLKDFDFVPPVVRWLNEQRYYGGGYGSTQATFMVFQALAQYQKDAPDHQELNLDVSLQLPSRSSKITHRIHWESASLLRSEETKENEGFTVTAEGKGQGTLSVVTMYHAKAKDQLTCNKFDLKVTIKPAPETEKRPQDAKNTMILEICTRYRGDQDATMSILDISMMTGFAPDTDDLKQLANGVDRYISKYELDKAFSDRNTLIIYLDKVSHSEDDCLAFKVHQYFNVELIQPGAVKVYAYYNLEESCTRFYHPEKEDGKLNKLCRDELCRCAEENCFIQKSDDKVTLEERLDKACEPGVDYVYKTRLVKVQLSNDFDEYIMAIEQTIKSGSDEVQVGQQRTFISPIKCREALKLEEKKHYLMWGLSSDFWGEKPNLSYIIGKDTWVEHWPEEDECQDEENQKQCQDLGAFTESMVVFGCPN
Chain of Factor H (62V) (P08603 19-1231): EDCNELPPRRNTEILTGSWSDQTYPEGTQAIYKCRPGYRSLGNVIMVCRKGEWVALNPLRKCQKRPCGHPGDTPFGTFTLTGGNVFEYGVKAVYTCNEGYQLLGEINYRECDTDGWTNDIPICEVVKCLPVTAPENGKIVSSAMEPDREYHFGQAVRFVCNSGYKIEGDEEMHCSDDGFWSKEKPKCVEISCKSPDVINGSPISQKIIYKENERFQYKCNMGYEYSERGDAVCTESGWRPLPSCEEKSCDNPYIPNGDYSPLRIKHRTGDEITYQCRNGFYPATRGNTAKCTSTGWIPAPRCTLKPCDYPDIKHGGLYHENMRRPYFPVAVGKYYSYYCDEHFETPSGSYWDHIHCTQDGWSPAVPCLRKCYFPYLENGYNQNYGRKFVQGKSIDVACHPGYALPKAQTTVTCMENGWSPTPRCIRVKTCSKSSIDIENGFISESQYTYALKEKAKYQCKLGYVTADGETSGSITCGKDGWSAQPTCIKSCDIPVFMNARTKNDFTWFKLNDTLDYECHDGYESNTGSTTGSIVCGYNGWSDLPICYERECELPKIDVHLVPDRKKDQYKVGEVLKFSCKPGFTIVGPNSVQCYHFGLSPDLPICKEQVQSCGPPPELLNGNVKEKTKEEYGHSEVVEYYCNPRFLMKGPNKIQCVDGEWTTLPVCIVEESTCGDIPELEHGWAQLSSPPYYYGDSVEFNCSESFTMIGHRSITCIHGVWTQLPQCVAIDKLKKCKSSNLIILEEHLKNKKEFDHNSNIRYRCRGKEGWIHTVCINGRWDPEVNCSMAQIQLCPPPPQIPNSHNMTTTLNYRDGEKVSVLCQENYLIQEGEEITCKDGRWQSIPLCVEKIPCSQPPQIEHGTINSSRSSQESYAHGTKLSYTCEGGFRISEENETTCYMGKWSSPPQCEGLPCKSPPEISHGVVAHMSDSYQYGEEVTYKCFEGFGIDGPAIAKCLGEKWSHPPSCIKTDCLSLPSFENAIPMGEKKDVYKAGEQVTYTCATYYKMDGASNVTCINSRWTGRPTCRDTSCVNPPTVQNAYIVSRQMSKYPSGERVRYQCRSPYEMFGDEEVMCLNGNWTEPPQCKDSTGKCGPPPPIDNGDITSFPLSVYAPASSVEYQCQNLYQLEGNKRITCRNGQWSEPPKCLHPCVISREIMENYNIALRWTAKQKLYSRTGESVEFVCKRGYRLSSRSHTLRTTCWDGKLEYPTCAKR

Kd [1] [nM]	Kd [2] [nM]	Substance
1300		Factor H (62V) (from UniProt P08603)
	1000	Factor H (62I) (from UniProt P08603)
